Reference: patent US20230129812A1, “COMPOSITIONS AND METHODS FOR TREATING PULMONARY HYPERTENSION” (Acceleron Pharma Inc., priority 2020, published 2023)
Blank lines part the entries; values can stand above or below the molecule they belong to.

Experiments:
BMP10 [1] = target: T1, BMP10 (Homo sapiens, UniProt O95393); assay: Biacore ligand affinity of ActRIIB-hFc variants (Example 10); type: binding
T1 sequence (O95393 317-424): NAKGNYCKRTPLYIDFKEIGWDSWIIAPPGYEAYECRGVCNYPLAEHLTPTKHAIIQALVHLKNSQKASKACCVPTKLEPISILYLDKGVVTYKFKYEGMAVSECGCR
Method: (§1) The affinity of ActRIIB variants and other ActRIIB-hFc proteins for several ligands was evaluated in vitro with a Biacore™ instrument. Kd values were obtained by steady-state affinity fit due to the very rapid association and dissociation of the complex, which prevented accurate determination of kon and koff.

BMP6 [2] = target: T2, BMP6 (Homo sapiens, UniProt P22004); assay: as above; type: binding
T2 sequence (P22004 375-513): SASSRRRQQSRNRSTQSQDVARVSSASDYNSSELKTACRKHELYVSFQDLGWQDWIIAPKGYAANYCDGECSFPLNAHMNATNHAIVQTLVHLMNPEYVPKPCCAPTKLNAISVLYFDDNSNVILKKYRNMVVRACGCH
Method: as §1

GDF8 [3] = target: T3, GDF8 (Homo sapiens, UniProt O14793); assay: as above; type: binding
T3 sequence (O14793 267-375): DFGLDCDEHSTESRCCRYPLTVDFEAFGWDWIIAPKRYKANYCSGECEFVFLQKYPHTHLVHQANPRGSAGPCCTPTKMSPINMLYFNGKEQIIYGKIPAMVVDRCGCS
Method: as §1

GDF11 [4] = target: T4, GDF11 (Homo sapiens, UniProt O95390); assay: Biacore ligand affinity of ActRIIB-hFc forms, steady-state affinity fit; type: binding
T4 sequence (O95390 299-407): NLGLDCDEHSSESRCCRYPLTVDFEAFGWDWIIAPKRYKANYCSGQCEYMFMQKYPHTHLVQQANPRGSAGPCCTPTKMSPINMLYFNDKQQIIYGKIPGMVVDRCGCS
Method: (§2) Affinities of several ligands for ActRIIB(25-131)-hFc and its full-length counterpart ActRIIB(20-134)-hFc were evaluated in vitro with a Biacore™ instrument, and the results are summarized in Table 8 below. Kd values were obtained by steady-state affinity fit due to very rapid association and dissociation of the complex, which prevented accurate determination of kon and koff. ActRIIB(25-131)-hFc bound, for example, activin A, activin B, and GDF11 with high affinity.
as §1

activin B [5] = target: T5, activin B (Homo sapiens, UniProt P09529); assay: as above; type: binding
T5 sequence (P09529 293-407): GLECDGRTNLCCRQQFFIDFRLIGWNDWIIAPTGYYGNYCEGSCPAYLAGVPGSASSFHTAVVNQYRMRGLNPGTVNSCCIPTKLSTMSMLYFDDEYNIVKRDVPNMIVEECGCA
Method: as §2, §1

activin A [6] = target: T6, activin A (Homo sapiens, UniProt P08476); assay: as above; type: binding
T6 sequence (P08476 311-426): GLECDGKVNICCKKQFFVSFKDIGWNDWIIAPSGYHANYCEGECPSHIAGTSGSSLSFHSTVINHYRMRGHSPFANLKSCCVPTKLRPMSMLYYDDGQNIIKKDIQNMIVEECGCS
Method: as §2, §1

GDF11 [7] = target: T4, GDF11; assay: Biacore ligand binding profile, ActRIIA-Fc:ALK4-Fc heterodimer vs homodimers, anti-Fc capture (Example 17, Table 14); conditions: ligand GDF11, Table 14
Method: (§3) A Biacore™-based binding assay was used to compare ligand binding selectivity of the ActRIIA-Fc:ALK4-Fc heterodimeric complex described above with that of ActRIIA-Fc and ALK4-Fc homodimeric complexes. The ActRIIA-Fc:ALK4-Fc heterodimer, ActRIIA-Fc homodimer, and ALK4-Fc homodimer were independently captured onto the system using an anti-Fc antibody. Ligands were injected and allowed to flow over the captured receptor protein. Results are summarized in Table 14 below, in which ligand off-rates (kd) most indicative of effective ligand traps are denoted in bold.

activin B [8] = target: T5, activin B; assay: as above; conditions: ligand Activin B, Table 14
Method: as §3

activin AB = target: T7, activin AB (Homo sapiens, UniProt P08476+P09529); assay: as above; conditions: ligand Activin AB, Table 14
T7 sequence (P08476 311-426): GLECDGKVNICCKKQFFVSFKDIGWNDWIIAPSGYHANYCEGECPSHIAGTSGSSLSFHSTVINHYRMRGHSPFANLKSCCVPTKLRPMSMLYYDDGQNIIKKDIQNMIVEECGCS
T7 sequence (P09529 293-407): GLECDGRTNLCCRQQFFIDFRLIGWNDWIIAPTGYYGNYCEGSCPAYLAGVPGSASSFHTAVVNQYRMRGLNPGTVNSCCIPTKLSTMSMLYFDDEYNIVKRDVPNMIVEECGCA
Method: as §3

activin A [9] = target: T6, activin A; assay: as above; conditions: ligand Activin A, Table 14
Method: as §3

BMP7 = target: T8, BMP7 (Homo sapiens, UniProt P18075); assay: as above; conditions: ligand BMP7, Table 14
T8 sequence (P18075 293-431): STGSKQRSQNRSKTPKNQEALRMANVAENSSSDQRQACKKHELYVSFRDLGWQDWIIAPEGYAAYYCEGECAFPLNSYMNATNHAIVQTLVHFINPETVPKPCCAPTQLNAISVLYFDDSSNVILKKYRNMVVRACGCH
Method: as §3

BMP10 [10] = target: T1, BMP10; assay: as above; conditions: ligand BMP10, Table 14
Method: as §3

BMP6 [11] = target: T2, BMP6; assay: as above; conditions: ligand BMP6, Table 14
Method: as §3

GDF8 [12] = target: T3, GDF8; assay: as above; conditions: ligand GDF8, Table 14
Method: as §3

activin AC = target: T9, activin AC (Homo sapiens, UniProt P08476+P55103); assay: as above; conditions: ligand Activin AC, Table 14
T9 sequence (P08476 311-426): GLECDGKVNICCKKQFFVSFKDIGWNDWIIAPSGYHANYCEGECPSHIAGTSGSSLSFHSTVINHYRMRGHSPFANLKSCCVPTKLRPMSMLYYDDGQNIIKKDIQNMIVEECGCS
T9 sequence (P55103 237-352): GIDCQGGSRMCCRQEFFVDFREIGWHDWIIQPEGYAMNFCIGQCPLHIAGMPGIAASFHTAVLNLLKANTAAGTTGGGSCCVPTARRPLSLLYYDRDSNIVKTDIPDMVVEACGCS
Method: as §3

GDF11 [13] = target: T4, GDF11; assay: Biacore ligand binding profile, ALK4-Fc:ActRIIB-Fc heterodimer vs homodimers, anti-Fc capture (Example 13, Table 13); conditions: ligand GDF11, Table 13
Method: (§4) A Biacore™-based binding assay was used to compare ligand binding selectivity of the ALK4-Fc:ActRIIB-Fc heterodimeric complex described above with that of ActRIIB-Fc and ALK4-Fc homodimer complexes. The ALK4-Fc:ActRIeB-Fc heterodimer, […], and ALK4-Fc homodimer were independently captured onto the system using an anti-Fc antibody. Ligands were injected and allowed to flow over the captured receptor protein. Results are summarized in Table 13 below, in which ligand off-rates (kd) most indicative of effective polypeptides are denoted in bold.

activin B [14] = target: T5, activin B; assay: as above; conditions: ligand Activin B, Table 13
Method: as §4

activin A [15] = target: T6, activin A; assay: as above; conditions: ligand Activin A, Table 13
Method: as §4

GDF8 [16] = target: T3, GDF8; assay: as above; conditions: ligand GDF8, Table 13
Method: as §4

BMP10 binding (BMP10 [1]): strong to intermediate binding
BMP6 binding (BMP6 [2]): strong to intermediate binding
GDF8 binding (GDF8 [3]): strong to intermediate binding
GDF11 binding (GDF11 [4]; Biacore): nearly full retention of GDF11 binding
Kd (GDF11 [4]; Table 12, Kd by steady-state affinity fit, read-out: GDF11 (Kd e−11)): 0.074 nM
activin B binding (activin B [5]; Biacore): partial loss of activin B binding
Kd (activin B [5]; Table 12, Kd by steady-state affinity fit, read-out: Activin B (Kd e−11)): 0.621 nM
activin A binding (activin A [6]; Biacore): pronounced loss of activin A binding
Kd (activin A [6]; Table 12, Kd by steady-state affinity fit, read-out: Activin A (Kd e−11)): 22.9 nM
B1: ActRIIB(L79D 25-131)-hFc: truncated ActRIIB extracellular domain (residues 25-131) with L79D substitution fused to human Fc (protein)
chain: ETRECIYYNANWELERTNQSGLERCEGEQDKRLHCYASWRNSSGTIELVKKGCWDDDFNCYDRQECVATEENPQVYFCCCEGNFCNERFTHLPEAGGPEVTYEPPPTGGGTHTCPPCPAPELLGGPSVFLFPPKPKDTLMISRTPRVTCVVVDVSHEDPEVKFNWYVDGVEVHNAKTKPREEQYNSTYRVVSVLTVLHQDWLNGKEYKCKVSNKALPAPIEKTISKAKGQPREPQVYTLPPSREEMTKNQVSLTCLVKGFYPSDIAVEWESNGQPENNYKTTPPVLDSDGSFFLYSKLTVDKSRWQQGNVFSCSVMHEALHNHYTQKSLSLSPGK

ka (GDF11 [7]): 5e+06 M⁻¹ s⁻¹
kd (GDF11 [7]): 0.0048 s⁻¹
KD (activin B [8]): No binding
ka (activin AB): 1.8e+06 M⁻¹ s⁻¹
kd (activin AB): 0.0036 s⁻¹
ka (activin A [9]): 580000 M⁻¹ s⁻¹
kd (activin A [9]): 0.012 s⁻¹
KD (BMP7): No binding
KD (BMP10 [10]): No binding
KD (BMP6 [11]): No binding
Kd (GDF8 [12]): 15 nM
ka (GDF8 [12]): 130000 M⁻¹ s⁻¹
kd (GDF8 [12]): 0.0019 s⁻¹
KD (activin AC): No binding
Kd (GDF11 [13]): 0.27 nM
ka (GDF11 [13]): 5e+06 M⁻¹ s⁻¹
kd (GDF11 [13]): 0.0048 s⁻¹
KD (activin B [14]): No binding
ka (activin A [15]): 580000 M⁻¹ s⁻¹
kd (activin A [15]): 0.012 s⁻¹
Kd (GDF8 [16]): 15 nM
ka (GDF8 [16]): 130000 M⁻¹ s⁻¹
kd (GDF8 [16]): 0.0019 s⁻¹
B2: ALK4-Fc homodimer: ALK4-Fc homodimer complex used as comparator in Examples 13 and 17 (protein)
chain: SGPRGVQALLCACTSCLQANYTCETDGACMVSIFNLDGMEHHVRTCIPKVELVPAGKPFYCLSSEDLRNTHCCYTDYCNRIDLRVPSGHLKEPEHPSMWGPVE
modifications: left off: a dimerising Fc or GST
